Source: patent publication US5763209, “Methods and materials relating to the functional domains of DNA binding proteins” (Arch Development Corporation)

How the values were obtained:
Egr-1 Δ284-330 = Egr-1 Δ284-330 (Mus musculus, UniProt P08046 SEQ:1-533, del284-330); experiment: cell_activity; HeLa, enhanced activation
Experimental: A series of deletion derivatives, each retaining the zinc finger domain, was assayed for transcriptional activity by transient transfection in HeLa and NIH3T3 cells (see FIG. 9). NIH3T3 and HeLa cells were maintained in Dulbecco's modified Eagle's medium (DMEM) with 10% calf serum. Cells were seeded at 8 ×10^5 cells per 100 mm plate the day before transfection. The media was replaced 2 to 6 hours prior to transfection by calcium phosphate-mediated precipitation. Each precipitate included 1 μg of the internal reference pON260, a CMV driven β-galactosidase plasmid (67), or 3 μg of PCH110, a SV40 driven β-galactosidase plasmid (Pharmacia), and remained on the cells for 16–20 hours. Forty-eight hours after transfection, cell extracts were prepared by freeze thaw lysis in 0.25M Tris-HCl 7.8 with protease inhibitors (1mM PMSF, 1 μg/ml Pepstatin A, and […] Leupeptin).
Deletion analyses were performed as described in Example 10, above. […] The enhanced activation seen with deletion A284–330 is consistent with the loss of a region important for repression or negative regulation.

Egr-1 (full length) = Egr-1 (full length) (Mus musculus, UniProt P08046 SEQ:1-533); experiment: cell_activity; activation in NIH3T3; dependent on Egr-1 sites
Sequence of Egr-1 (full length) (P08046 whole entry): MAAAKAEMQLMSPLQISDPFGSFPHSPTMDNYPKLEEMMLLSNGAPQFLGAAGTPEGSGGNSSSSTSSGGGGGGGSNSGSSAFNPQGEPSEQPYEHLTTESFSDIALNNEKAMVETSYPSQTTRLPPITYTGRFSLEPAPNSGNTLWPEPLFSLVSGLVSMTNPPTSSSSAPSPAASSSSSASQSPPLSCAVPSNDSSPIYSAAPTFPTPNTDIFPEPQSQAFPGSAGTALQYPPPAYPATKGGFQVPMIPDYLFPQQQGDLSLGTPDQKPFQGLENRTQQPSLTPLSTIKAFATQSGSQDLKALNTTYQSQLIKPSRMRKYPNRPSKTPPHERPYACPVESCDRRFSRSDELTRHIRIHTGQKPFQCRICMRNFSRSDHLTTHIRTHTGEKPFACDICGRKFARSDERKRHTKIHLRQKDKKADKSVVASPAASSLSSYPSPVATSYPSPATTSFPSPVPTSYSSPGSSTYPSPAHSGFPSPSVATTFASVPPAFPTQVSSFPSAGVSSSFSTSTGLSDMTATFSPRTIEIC

Sequence of Egr-1 Δ284-330 (P08046 other isoform, or with tags, fused parts or gaps del284-330 | mutant): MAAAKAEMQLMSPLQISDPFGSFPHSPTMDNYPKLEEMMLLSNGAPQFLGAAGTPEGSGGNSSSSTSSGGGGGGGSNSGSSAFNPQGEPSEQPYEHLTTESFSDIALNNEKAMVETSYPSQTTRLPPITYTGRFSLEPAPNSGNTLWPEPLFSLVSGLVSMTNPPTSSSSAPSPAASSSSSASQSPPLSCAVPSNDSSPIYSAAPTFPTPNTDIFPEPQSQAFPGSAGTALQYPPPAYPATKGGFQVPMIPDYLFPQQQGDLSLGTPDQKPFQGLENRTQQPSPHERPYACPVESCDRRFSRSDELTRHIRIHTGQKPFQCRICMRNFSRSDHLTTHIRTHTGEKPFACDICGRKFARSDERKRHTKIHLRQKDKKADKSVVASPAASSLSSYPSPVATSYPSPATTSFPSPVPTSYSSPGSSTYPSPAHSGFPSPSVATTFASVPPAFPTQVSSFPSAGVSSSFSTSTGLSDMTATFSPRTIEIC

B1: EBS1^3 foscat (3 Egr-1 sites in front of minimal c-fos promoter) (dsDNA)
DNA 1: CGCCCCCGC
DNA 2: GCGGGGGCG
In the case of B1, the activity (Egr-1 Δ284-330) is reported as ~5 fold of wild type and the activity (Egr-1 (full length)) is reported as 10 fold.
